In patent US20240181022A1, “AMURINS LYSINS, AND LYSIN-ANTIMICROBIAL PEPTIDE (AMP) CONSTRUCTS ACTIVE AGAINST GRAM-NEGATIVE BACTERIA” (priority 2021, published 2024):
Converted amounts (≈) assume the structure as drawn. Read-outs that look alike come from different tables or passages of the source.

Assays:
[1] = system: P. aeruginosa; assay: Time-kill assay in cystic fibrosis patient sputum, P. aeruginosa; format: cell-based, Pseudomonas aeruginosa
Description: (§1) Sputum from 5 cystic fibrosis patients was pooled. The resulting mixture was not filtered, as it was very dense and not amenable to sterilization by filtration. Sputum is known to be a complex mixture of DNA, carbohydrates, and lipids ([…], 2016). As used herein, the term “sputum” refers to the mucus present in the respiratory tract of an animal, such as a human. Sputum may increase in thickness due to the irritation or infection, including bacterial infection, and in some instances, may be expelled by the animal while coughing. In certain instances, cystic fibrosis may be characterized by the presence of a thick, sticky mucus or sputum present in the lungs of cystic fibrosis patients. The activity of GN370, AM1, AM2, AM3, and meropenem was determined in the sputum using a time-kill assay format as disclosed in Zhang et al., Antimicrobial peptide therapeutics for cystic fibrosis, Antimicrobial Agents Chemother. 2005; 49(7):2921-2927. […] Untreated controls were included in addition to pretreatment plating (t=0) for a baseline CFU determination. Activity was also determined in the absence of sputum for comparison to activity observed in the presence of sputum.

[2] = system: B. cenocepacia; assay: MIC by broth microdilution against B. cenocepacia; format: cell-based, Burkholderia cenocepacia; set-up: MIC Range: unit not given beside the values
Experimental: (§2) MIC values were determined using a modification of the standard broth microdilution reference method defined by the Clinical and Laboratory Standards Institute (CLSI), CLSL. 2015. Methods for Dilution Antimicrobial Susceptibility Tests for Bacteria That Grow Aerobically; Approved Standard-10th Edition. Clinical and Laboratory Standards Institute, Wayne, PA. The modification was based on the replacement of Mueller Hinton Broth with either CAA media (with and without NaCl) or CAA supplemented with 2.5% human serum. MIC is the minimum concentration of peptide sufficient to suppress at least 80% of the bacterial growth compared to control.
(§3) Based on these nine most prevalent strains, direct lytic agents, including GN370, AM1, AM2, and AM3, were evaluated against various isolates from each of the 9 strains. MICs and MBECs (Example 3) were determined, and a sputum inhibition test was conducted, as described below in Example 5.
(§4) The MICs for were determined as described below using the broth microdilution method for meropenem, GN370, AM1, AM2, and AM3. The results are shown below in Tables 8-12.

[3] = system: S. maltophilia; assay: Time-kill assay in cystic fibrosis patient sputum, S. maltophilia; format: cell-based, Stenotrophomonas maltophilia
Description: as §1

[4] = system: B. multivorans; assay: MIC by broth microdilution against B. multivorans; format: cell-based, Burkholderia multivorans; settings: B. multivorans isolates
Experimental: as §2, §3, §4

[5] = system: P. aeruginosa
[6] = system: P. aeruginosa; assay: Serial passage resistance development study, P. aeruginosa; format: cell-based, Pseudomonas aeruginosa
[7] = system: B. cenocepacia; format: cell-based, Burkholderia cenocepacia; settings: B. cenocepacia (15); 2-hour treatment
Experimental: (§5) The MBEC (after 2-hour treatments) was determined as described in Jones and Wozniak, PsI Produced by Mucoid Pseudomonas aeruginosa Contributes to the Establishment of Biofilms and Immune Evasion, Am. Soc. Microbiol. 2017, 8(3):e00864-17. Meropenem and tobramycin were included as controls and were both poorly active, with MBEC90 values of >256 μg/mL (data not shown).

[8] = system: A. dolens; format: cell-based, Achromobacter dolens; settings: A. dolens (15); 2-hour treatment
Experimental: as §5

[9] = system: A. ruhlandii; format: cell-based, Achromobacter ruhlandii; settings: A. ruhlandii (15); 2-hour treatment
Experimental: as §5

[10] = P. aeruginosa test organism of the sputum time-kill assay
[11] = Burkholderia cenocepacia, N 15 (Table 26)
[12] = MDR P. aeruginosa isolates (n = 13)
[13] = Pseudomonas aeruginosa, AR Bank, N 67
[14] = Pseudomonas aeruginosa, Weill Cornell, N 55
[15] = Pseudomonas aeruginosa, all isolates, N 122
[16] = carbapenem-resistant P. aeruginosa isolates (n = 12)
[17] = mucoid P. aeruginosa isolates (n = 11)
[18] = α-hemolytic P. aeruginosa isolates (n = 13)

## C[C@@H](O)[C@H]1C(=O)N2C(C(=O)O)=C(S[C@@H]3CN[C@H](C(=O)N(C)C)C3)[C@H](C)[C@H]12 [meropenem, reference compound]
[1]
  activity in the presence and absence of sputum: poorly active
[1]; absence of sputum, 1 hr
  Log10 CFU/mL of sputum: 5.38 Log10 CFU/mL of sputum
[1]; absence of sputum, 3 hr
  Log10 CFU/mL of sputum: 4.98 Log10 CFU/mL of sputum
[1]; absence of sputum, 24 hr
  Log10 CFU/mL of sputum: 6.38 Log10 CFU/mL of sputum
[1]; presence of 10% sputum, 1 hr
  Log10 CFU/mL of sputum: 5.26 Log10 CFU/mL of sputum
[1]; presence of 10% sputum, 3 hr
  Log10 CFU/mL of sputum: 4.78 Log10 CFU/mL of sputum
[1]; presence of 10% sputum, 24 hr
  Log10 CFU/mL of sputum: 6.6 Log10 CFU/mL of sputum
[2]; B. cenocepacia isolates
  MIC50: 4 µg/mL (≈ 10.4 µM)
  MIC90: 8 µg/mL (≈ 20.9 µM)
  MIC Range: 2-32
[3]
  activity in the presence and absence of sputum: poorly active
[3]; absence of sputum, 1 hr
  Log10 CFU/mL of sputum: 5.04 Log10 CFU/mL of sputum
[3]; absence of sputum, 3 hr
  Log10 CFU/mL of sputum: 4.7 Log10 CFU/mL of sputum
[3]; absence of sputum, 24 hr
  Log10 CFU/mL of sputum: 7.95 Log10 CFU/mL of sputum
[3]; presence of 10% sputum, 1 hr
  Log10 CFU/mL of sputum: 3.78 Log10 CFU/mL of sputum
[3]; presence of 10% sputum, 3 hr
  Log10 CFU/mL of sputum: 4.26 Log10 CFU/mL of sputum
[3]; presence of 10% sputum, 24 hr
  Log10 CFU/mL of sputum: 6.3 Log10 CFU/mL of sputum
[4]
  MIC50: 8 µg/mL (≈ 20.9 µM)
  MIC90: 32 µg/mL (≈ 83.4 µM)
[5]; P. aeruginosa isolates
  MIC50: 4 µg/mL (≈ 10.4 µM)
  MIC90: 32 µg/mL (≈ 83.4 µM)
[5]; [10]
  MIC: (MIC = 0.125)
[5]; […], before serial passage
  MIC: 0.5 µg/mL (≈ 1.3 µM)

B1: GN370: lysin-AMP construct, SEQ ID NO: 149: MIDR, FIRL and NPTH moieties N-terminal to GN202 lysin (protein)
chain: MIDRFIRLNPTHGPRRPRRPGRRAPVRTSQRGIDLIKSFEGLRLSAYQDSVGVWTIGYGTTRGVTRYMTITVEQAERMLSNDIQRFEPELDRLAKVPLNQNQWDALMSFVYNLGAANLASSTLLDLLNKGDYQGAADQFPHWVNAGGKRLDGLVKRRAAERALFLEPLS
modifications: GN370 lysin
[1]; 10% CF sputum vs no sputum
  effect of sputum on antibacterial activity: not inhibited
[1]; absence of sputum, 1 hr
  Log10 CFU/mL of sputum: 2.3 Log10 CFU/mL of sputum
[1]; absence of sputum, 3 hr
  Log10 CFU/mL of sputum: 2.3 Log10 CFU/mL of sputum
[1]; absence of sputum, 24 hr
  Log10 CFU/mL of sputum: 2.3 Log10 CFU/mL of sputum
[1]; presence of 10% sputum, 1 hr
  Log10 CFU/mL of sputum: 3.9 Log10 CFU/mL of sputum
[1]; presence of 10% sputum, 3 hr
  Log10 CFU/mL of sputum: 3.6 Log10 CFU/mL of sputum
[1]; presence of 10% sputum, 24 hr
  Log10 CFU/mL of sputum: 2.3 Log10 CFU/mL of sputum
[1]; time-kill
  CFU reduction by 3 hours: 1.5 log10
  CFU reduction by 24 hours: > 3 log10
[6]; P. aeruginosa (PA453)
  change in MIC over 28-day serial passage: No change
[6]; P. aeruginosa PA453, target organism of serial passage study
  MIC: 0.125 µg/mL
[6]; P. aeruginosa strain CFS 1292, Day 28
  change in MIC over serial passage: no significant changes
[2]; B. cenocepacia isolates
  MIC50: > 32 µg/mL
  MIC90: > 32 µg/mL
[2]; [11]
  MIC50: >64 µg/mL
  MIC90: >64 µg/mL
[7]
  MBEC50: 256 µg/mL
[8]
  MBEC50: 32 µg/mL
  MBEC90: 128 µg/mL
  MBEC Range: 4 to 128 µg/mL
[9]
  MBEC50: 4 µg/mL
  MBEC90: 64 µg/mL
  MBEC Range: 4 to 64 µg/mL
[3]; 10% CF sputum vs no sputum
  effect of sputum on antibacterial activity: none of GN370, AM1, AM2, and AM3 was inhibited
[3]; absence of sputum, 1 hr
  Log10 CFU/mL of sputum: 2.3 Log10 CFU/mL of sputum
[3]; absence of sputum, 3 hr
  Log10 CFU/mL of sputum: 2.3 Log10 CFU/mL of sputum
[3]; absence of sputum, 24 hr
  Log10 CFU/mL of sputum: 2.3 Log10 CFU/mL of sputum
[3]; presence of 10% sputum, 1 hr
  Log10 CFU/mL of sputum: 3.48 Log10 CFU/mL of sputum
[3]; presence of 10% sputum, 3 hr
  Log10 CFU/mL of sputum: 2.3 Log10 CFU/mL of sputum
[3]; presence of 10% sputum, 24 hr
  Log10 CFU/mL of sputum: 2.3 Log10 CFU/mL of sputum
[3]; time-kill
  CFU reduction by 3 hours: ~2 log10
  killing by 24 hours: complete killing
[4]
  MIC50: 16 µg/mL
  MIC90: > 32 µg/mL
[5]; [12]
  MIC50: 0.125 µg/mL
  MIC90: 0.5 µg/mL
[5]; MDR P. aeruginosa isolates (n = 13), in µg/mL
  MIC Range: 0.0625-0.5
[5]; P. aeruginosa ATCC 27853 (head of Table 19)
  MIC: 1 µg/mL
[5]; P. aeruginosa PA25
  MIC: PA25 (MIC = 2 μg/mL)
[5]; P. aeruginosa clinical and resistant isolates
  MIC90: 2 µg/mL
[5]; P. aeruginosa isolates
  MIC50: 0.25 µg/mL
  MIC90: 0.5 µg/mL
[5]; P. aeruginosa isolates, in µg/mL
  MIC Range: 0.06-1
[5]; [10]
  MIC: (MIC = 0.5)
[5]; [13]
  MIC50: 1 µg/mL
  MIC90: 2 µg/mL
  MIC Range: 0.25 to 2 µg/mL
[5]; [14]
  MIC50: 1 µg/mL
  MIC90: 2 µg/mL
  MIC Range: 0.25 to 2 µg/mL
[5]; [15]
  MIC50: 1 µg/mL
  MIC90: 2 µg/mL
  MIC Range: 0.25 to 2 µg/mL
[5]; XDR P. aeruginosa strain AR-769
  MIC: 2 µg/mL
[5]; […], before serial passage
  MIC: 1 µg/mL
[5]; all tested isolates, Tables 8-12
  activity (MIC) against P. aeruginosa isolates: highly active
[5]; [16]
  GN370 MIC50: 0.25 µg/mL
  GN370 MIC90: 0.5 µg/mL
[5]; carbapenem-resistant P. aeruginosa isolates (n = 12), in µg/mL
  GN370 MIC Range: 0.0625-1
[5]; [17]
  MIC50: 0.25 µg/mL
  MIC90: 1 µg/mL
[5]; mucoid P. aeruginosa isolates (n = 11), in µg/mL
  MIC Range: 0.0625-1
[5]; [18]
  MIC50: 0.25 µg/mL
  MIC90: 1 µg/mL
[5]; α-hemolytic P. aeruginosa isolates (n = 13), in µg/mL
  MIC Range: 0.0625-1
